Source: US20050136043

Assays:
GST-Smad1 = GST-Smad1 (UniProt Q15797)
GST-Smad2 (full-length) = GST-Smad2 (full-length) (UniProt Q15796)
GST-Smad3deltaMH1 = GST-Smad3deltaMH1 (UniProt P84022)
Chain of GST-Smad3deltaMH1 (P84022 137-425, stated change not applied): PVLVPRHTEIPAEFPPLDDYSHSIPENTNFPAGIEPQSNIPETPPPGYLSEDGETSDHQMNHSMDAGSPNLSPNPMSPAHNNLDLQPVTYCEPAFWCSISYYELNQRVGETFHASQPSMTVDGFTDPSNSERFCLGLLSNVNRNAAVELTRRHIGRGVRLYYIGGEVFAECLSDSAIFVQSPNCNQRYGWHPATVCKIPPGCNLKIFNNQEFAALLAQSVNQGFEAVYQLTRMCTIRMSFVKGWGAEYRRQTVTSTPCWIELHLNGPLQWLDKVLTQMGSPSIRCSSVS

Chain of GST-Smad2 (full-length) (Q15796 whole entry): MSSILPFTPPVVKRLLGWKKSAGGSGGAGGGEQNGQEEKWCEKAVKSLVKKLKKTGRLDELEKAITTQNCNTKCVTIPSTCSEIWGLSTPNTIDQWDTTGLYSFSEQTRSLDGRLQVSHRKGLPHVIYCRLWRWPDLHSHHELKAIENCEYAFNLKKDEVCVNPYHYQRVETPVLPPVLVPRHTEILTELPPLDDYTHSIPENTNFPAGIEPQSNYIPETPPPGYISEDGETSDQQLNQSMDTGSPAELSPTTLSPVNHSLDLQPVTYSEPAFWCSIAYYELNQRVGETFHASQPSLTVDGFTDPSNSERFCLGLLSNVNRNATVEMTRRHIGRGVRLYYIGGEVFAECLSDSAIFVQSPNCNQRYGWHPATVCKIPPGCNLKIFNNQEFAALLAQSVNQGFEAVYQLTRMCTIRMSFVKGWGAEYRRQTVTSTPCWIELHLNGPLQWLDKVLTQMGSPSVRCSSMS
Chain of GST-Smad1 (Q15797 whole entry): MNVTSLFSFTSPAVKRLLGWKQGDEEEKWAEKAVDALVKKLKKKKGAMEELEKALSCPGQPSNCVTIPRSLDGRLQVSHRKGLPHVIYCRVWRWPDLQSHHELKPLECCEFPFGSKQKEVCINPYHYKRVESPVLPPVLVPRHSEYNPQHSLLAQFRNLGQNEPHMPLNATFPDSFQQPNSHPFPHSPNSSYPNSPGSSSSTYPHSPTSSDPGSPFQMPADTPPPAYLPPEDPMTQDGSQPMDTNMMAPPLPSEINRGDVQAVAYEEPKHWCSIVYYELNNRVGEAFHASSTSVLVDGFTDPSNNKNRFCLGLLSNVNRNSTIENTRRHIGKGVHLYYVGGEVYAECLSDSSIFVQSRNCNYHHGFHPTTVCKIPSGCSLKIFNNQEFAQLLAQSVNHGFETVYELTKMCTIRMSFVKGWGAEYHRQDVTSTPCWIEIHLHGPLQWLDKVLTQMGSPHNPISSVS

Substance: GST-TβR-I (GST fused to the cytoplasmic part, residues 148-503, of constitutively active TβR-I T204D, FLAG-tagged at the C-terminus)
- phosphorylation of substrate in in vitro kinase assay (32P, SDS-PAGE, phosphorimager) (GST-Smad1): no phosphorylation of GST-Smad1 was observed
- phosphorylation of substrate in in vitro kinase assay (32P, SDS-PAGE, phosphorimager) (GST-Smad2 (full-length)): Purified GST-TβR-I kinase efficiently phosphorylated itself, as well as the C-terminal part of Smad3 and full-length GST-Smad2 as exogenous substrates
- phosphorylation of substrate in in vitro kinase assay (32P, SDS-PAGE, phosphorimager) (GST-Smad3deltaMH1): Purified GST-TβR-I kinase efficiently phosphorylated itself, as well as the C-terminal part of Smad3 and full-length GST-Smad2 as exogenous substrates
